Experimental data reported in patent publication US20200109188A1 (AstraZeneca / MedImmune, published 2020).
Where two headings read alike, the source gives them in different places.

Key:
[1] = target: HA of A/New Jersey/8/76 (H1N1) virus (influenza A virus); assay: cell-based or functional assay
[2] = target: T1, HA of ca A/New Caledonia/20/99 (H1N1) virus (influenza A virus); assay: cell-based or functional assay
[3] = target: T2, HA of ca A/swine/Missouri/06 (H2N3) virus (influenza A virus); assay: cell-based or functional assay
[4] = target: HA of ca A/Hong Kong/213/03 (H5N1) virus (influenza A virus); assay: cell-based or functional assay
[5] = target: T3, HA of ca A/chicken/Hong Kong/G9/97 (H9N2) virus (influenza A virus); assay: cell-based or functional assay
[6] = target: T4, HA of H3-LA87 (A/Los Angeles/7/09 (H3N2)) virus (influenza A virus); assay: cell-based or functional assay
[7] = target: HA of ca A/Panama/2007/99 (H3N2) virus (influenza A virus); assay: cell-based or functional assay
[8] = target: T5, HA of ca A/Netherlands/219/03 (H7N7) virus (influenza A virus); assay: cell-based or functional assay
[9] = target: HA of A/Fort Monmouth/1/47 (H1N1) virus (influenza A virus); assay: cell-based or functional assay
[10] = target: HA of A/New Jersey/8/76 (H1N1) virus (influenza A virus); assay: cell-based or functional assay; remark: listed apart in the source
[11] = target: HA of A/Kawasaki/9/86 (H1N1) virus (influenza A virus); assay: cell-based or functional assay
[12] = target: HA of ca A/Texas/36/91 (H1N1) virus (influenza A virus); assay: cell-based or functional assay
[13] = target: HA of ca A/Beijing/262/95 (H1N1) virus (influenza A virus); assay: cell-based or functional assay
[14] = target: T1, HA of ca A/New Caledonia/20/99 (H1N1) …; assay: cell-based or functional assay; remark: listed apart in the source
[15] = target: HA of H1-BS10 virus; assay: cell-based or functional assay
[16] = target: HA of ca A/Japan/57 (H2N2) virus (influenza A virus); assay: cell-based or functional assay
[17] = target: T2, HA of ca A/swine/Missouri/06 (H2N3) …; assay: cell-based or functional assay; remark: listed apart in the source
[18] = target: HA of ca A/Vietnam/1203/04 (H5N1) virus (influenza A virus); assay: cell-based or functional assay
[19] = target: HA of ca A/Hong Kong/213/03 (H5N1) virus (influenza A virus); assay: cell-based or functional assay; remark: listed apart in the source
[20] = target: HA of ca A/mallard/Alberta/89/85 (H6N2) virus (influenza A virus); assay: cell-based or functional assay
[21] = target: HA of ca A/teal/Hong Kong/W312/97 (H6N1) virus (influenza A virus); assay: cell-based or functional assay
[22] = target: T3, HA of ca A/chicken/Hong Kong/G9/97 …; assay: cell-based or functional assay; remark: listed apart in the source
[23] = target: HA of A/Hong Kong/8/68 (H3N2) virus (influenza A virus); assay: cell-based or functional assay
[24] = target: HA of A/Victoria/3/75 (H3N2) virus (influenza A virus, UniProt P03435 17-567); assay: cell-based or functional assay
Chain of HA of A/Victoria/3/75 (H3N2) virus (P03435 17-567 limits assumed): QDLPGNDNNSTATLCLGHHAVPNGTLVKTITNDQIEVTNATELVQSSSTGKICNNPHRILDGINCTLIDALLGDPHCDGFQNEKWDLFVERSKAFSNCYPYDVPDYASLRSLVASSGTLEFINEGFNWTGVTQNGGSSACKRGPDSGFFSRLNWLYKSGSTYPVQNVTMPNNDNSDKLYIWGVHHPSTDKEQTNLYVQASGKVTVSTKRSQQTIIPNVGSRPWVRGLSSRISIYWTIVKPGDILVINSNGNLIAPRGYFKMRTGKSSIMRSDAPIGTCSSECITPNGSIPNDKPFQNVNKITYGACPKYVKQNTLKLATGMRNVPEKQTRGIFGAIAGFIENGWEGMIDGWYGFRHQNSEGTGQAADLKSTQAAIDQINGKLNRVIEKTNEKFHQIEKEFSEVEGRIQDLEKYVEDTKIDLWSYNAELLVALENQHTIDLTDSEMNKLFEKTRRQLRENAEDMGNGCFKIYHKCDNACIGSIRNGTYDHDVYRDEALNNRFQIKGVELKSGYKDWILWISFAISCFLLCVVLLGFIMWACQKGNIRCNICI

[25] = target: T4, HA of H3-LA87 (A/Los Angeles/7/09 …); assay: cell-based or functional assay; remark: listed apart in the source
[26] = target: HA of ca A/Sydney/5/97 (H3N2) virus (influenza A virus); assay: cell-based or functional assay
[27] = target: HA of ca A/Panama/2007/99 (H3N2) virus (influenza A virus); assay: cell-based or functional assay; remark: listed apart in the source
[28] = target: HA of A/Wisconsin/67/05 (H3N2) virus (influenza A virus); assay: cell-based or functional assay
[29] = target: HA of ca A/Perth/16/09 (H3N2) virus (influenza A virus); assay: cell-based or functional assay
[30] = target: HA of A/Victoria/361/11 (H3N2) virus (influenza A virus); assay: cell-based or functional assay
[31] = target: T5, HA of ca A/Netherlands/219/03 (H7N7) …; assay: cell-based or functional assay; remark: listed apart in the source
[32] = target: HA of ca A/Brit. Columbia/CN-6/04 (H7N3-LP) virus (influenza A virus); assay: cell-based or functional assay
[33] = target: HA of ca A/Anhui/1/13 (H7N9) virus (influenza A virus); assay: cell-based or functional assay
[34] = target: HA subtype H12 (A/duck/Alberta/60/76 (H12N5)) on HEK cells (influenza A virus, UniProt P03446 17-564); assay: flow cytometry, HA-transfected HEK cells
Chain of HA subtype H12 (A/duck/Alberta/60/76 (H12N5)) on HEK cells (P03446 17-564): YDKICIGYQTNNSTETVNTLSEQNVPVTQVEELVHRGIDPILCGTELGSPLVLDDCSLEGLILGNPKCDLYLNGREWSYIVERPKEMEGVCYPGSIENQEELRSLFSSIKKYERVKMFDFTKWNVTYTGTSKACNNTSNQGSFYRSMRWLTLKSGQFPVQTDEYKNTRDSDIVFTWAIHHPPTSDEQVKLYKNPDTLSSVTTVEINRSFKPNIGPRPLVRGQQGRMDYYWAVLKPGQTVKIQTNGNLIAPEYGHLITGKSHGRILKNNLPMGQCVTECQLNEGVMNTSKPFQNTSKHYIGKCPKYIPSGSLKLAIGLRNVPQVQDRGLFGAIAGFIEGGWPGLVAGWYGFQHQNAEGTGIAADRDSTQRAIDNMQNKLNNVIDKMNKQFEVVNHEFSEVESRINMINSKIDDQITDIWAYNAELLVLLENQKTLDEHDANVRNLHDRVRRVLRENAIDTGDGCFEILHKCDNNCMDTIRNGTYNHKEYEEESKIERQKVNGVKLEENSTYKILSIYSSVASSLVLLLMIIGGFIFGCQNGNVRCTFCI

[35] = target: HA subtype H4 (A/duck/Czechoslovakia/56 (H4N6)) on HEK cells (influenza A virus, UniProt P19696 17-564); assay: flow cytometry, HA-transfected HEK cells, 5 ug/ml antibody
Chain of HA subtype H4 (A/duck/Czechoslovakia/56 (H4N6)) on HEK cells (P19696 17-564): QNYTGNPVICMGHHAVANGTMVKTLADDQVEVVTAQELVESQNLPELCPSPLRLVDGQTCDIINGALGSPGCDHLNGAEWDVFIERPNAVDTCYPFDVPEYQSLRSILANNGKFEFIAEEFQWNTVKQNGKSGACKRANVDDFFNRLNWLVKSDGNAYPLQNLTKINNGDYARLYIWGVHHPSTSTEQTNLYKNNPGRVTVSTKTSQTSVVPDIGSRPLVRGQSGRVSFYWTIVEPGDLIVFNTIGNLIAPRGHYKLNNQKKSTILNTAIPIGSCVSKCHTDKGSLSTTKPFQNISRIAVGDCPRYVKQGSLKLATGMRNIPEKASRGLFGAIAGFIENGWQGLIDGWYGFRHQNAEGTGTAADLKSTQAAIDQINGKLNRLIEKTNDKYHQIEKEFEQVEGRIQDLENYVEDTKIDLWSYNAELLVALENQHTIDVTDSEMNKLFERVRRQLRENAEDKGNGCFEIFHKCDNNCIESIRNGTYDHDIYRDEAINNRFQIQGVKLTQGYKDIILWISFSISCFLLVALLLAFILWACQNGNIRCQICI

[36] = target: HA subtype H10 (A/chicken/Germany/N49 (H10N7)) on HEK cells (influenza A virus, UniProt P12581 17-561); assay: as above
Chain of HA subtype H10 (A/chicken/Germany/N49 (H10N7)) on HEK cells (P12581 17-561): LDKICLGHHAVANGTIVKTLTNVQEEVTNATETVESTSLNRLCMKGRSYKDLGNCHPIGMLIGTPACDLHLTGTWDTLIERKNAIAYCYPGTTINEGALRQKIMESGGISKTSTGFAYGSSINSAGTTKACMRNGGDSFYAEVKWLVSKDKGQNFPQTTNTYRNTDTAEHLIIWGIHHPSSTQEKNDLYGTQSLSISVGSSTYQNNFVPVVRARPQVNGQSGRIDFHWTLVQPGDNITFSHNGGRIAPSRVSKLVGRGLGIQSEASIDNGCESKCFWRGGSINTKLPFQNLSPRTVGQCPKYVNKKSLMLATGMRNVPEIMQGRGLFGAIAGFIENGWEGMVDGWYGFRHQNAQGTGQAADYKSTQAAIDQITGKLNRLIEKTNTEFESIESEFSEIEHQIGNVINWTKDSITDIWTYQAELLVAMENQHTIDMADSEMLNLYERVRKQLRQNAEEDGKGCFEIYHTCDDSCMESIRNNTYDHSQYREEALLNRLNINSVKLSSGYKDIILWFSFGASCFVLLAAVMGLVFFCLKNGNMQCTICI

[37] = target: HA subtype H13 (A/gull/Maryland/704/77 (H13N6)) on HEK cells (influenza A virus, UniProt P13103 19-566); assay: as above
Chain of HA subtype H13 (A/gull/Maryland/704/77 (H13N6)) on HEK cells (P13103 19-566): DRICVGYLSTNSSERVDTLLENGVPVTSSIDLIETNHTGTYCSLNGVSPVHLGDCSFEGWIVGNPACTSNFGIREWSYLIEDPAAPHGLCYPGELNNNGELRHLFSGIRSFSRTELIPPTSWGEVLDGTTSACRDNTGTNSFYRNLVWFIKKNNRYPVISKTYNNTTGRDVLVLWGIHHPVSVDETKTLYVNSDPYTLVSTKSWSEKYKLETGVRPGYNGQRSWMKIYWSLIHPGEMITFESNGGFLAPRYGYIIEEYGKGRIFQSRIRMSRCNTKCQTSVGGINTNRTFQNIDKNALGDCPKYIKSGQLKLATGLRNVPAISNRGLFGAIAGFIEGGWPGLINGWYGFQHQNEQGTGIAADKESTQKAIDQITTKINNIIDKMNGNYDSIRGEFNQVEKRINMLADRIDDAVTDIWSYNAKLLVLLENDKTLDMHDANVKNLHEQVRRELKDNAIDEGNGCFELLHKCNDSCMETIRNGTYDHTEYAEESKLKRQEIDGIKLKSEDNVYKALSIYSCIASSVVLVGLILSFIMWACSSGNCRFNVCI

[38] = target: HA subtype H14 (A/mallard/Astrakhan/263/82 (H14N5)) on HEK cells (influenza A virus, UniProt P26136 18-568); assay: as above
Chain of HA subtype H14 (A/mallard/Astrakhan/263/82 (H14N5)) on HEK cells (P26136 18-568): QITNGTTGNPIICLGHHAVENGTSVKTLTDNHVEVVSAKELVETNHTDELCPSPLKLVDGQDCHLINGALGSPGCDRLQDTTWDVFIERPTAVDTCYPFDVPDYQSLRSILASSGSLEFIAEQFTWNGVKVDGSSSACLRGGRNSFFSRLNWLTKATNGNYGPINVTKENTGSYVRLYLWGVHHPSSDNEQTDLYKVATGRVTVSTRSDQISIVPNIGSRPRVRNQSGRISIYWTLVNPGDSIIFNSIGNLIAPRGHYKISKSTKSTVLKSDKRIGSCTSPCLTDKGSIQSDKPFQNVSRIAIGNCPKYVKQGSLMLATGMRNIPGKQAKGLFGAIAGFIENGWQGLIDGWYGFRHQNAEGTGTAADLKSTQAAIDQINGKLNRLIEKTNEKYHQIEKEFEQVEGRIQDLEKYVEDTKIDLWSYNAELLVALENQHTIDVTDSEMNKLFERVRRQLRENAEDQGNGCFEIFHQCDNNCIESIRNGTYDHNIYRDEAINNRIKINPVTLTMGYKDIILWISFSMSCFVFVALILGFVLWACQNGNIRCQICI

B1: Antibody 3 (antibody, V domains shown)
VH: QVQLQESGPGLVKPSQTLSLTCAISGDSVSSNNAVWNWIRQSPSRGLEWLGRTYYRSKWYNDYAESVKSRITVNPDTSKNQFSLHLKSVTPEDTAVFYCVRSGHITVFGVNVDAFDMWGQGTMVTVSS
VL: DIQMTQSPSSLSASVGDRVTITCRTSQSLSSYLHWYQQKPGKAPKLLIYAASSLQSGVPSRFSGSGSGTDFTLTISSLQPEDFATYYCQQSRTFGQGTKVEIK
For B1, the “Neutralization IC50, H1-NJ76” value [1] was 1.41 µg/mL, the “Neutralization IC50, H1-Ncal99” value [2] was 0.79 µg/mL and the “Neutralization IC50, H2-MO06” value [3] was 2.27 µg/mL. For the same binder, the “Neutralization IC50, H5-HK03” value [4] was 4.64 µg/mL, the “Neutralization IC50, H9-HK97” value [5] was 1.79 µg/mL and the “Neutralization IC50, H3-LA87” value [6] was 4.19 µg/mL. For the same binder, the “Neutralization IC50, H3-Pa99” value [7] was 17.7 µg/mL, the “Neutralization IC50, H7-NLD03” value [8] was 4.78 µg/mL and the “Neutralization IC50, H1-FM47” value [9] was 1.04 µg/mL. The “Neutralization IC50, H1-NJ76” value [10] was 0.57 µg/mL, the “Neutralization IC50, H1-Kaw86” value [11] was 1.01 µg/mL and the “Neutralization IC50, H1-TX91” value [12] was 0.92 µg/mL. For the same binder, the “Neutralization IC50, H1-BJ95” value [13] was 2.98 µg/mL, the “Neutralization IC50, H1-Ncal99” value [14] was 1.16 µg/mL and the “Neutralization IC50, H1-BS10” value [15] was 2.16 µg/mL. The “Neutralization IC50, H2-JP57” value [16] was 0.46 µg/mL, the “Neutralization IC50, H2-MO06” value [17] was 1.09 µg/mL and the “Neutralization IC50, H5-VM04” value [18] was 1.19 µg/mL. For the same binder, the “Neutralization IC50, H5-HK03” value [19] was 0.71 µg/mL, the “Neutralization IC50, H6-AB85” value [20] was 0.69 µg/mL and the “Neutralization IC50, H6-HK97” value [21] was 0.63 µg/mL. The “Neutralization IC50, H9-HK97” value [22] was 1.18 µg/mL, the “Neutralization IC50, H3-HK68” value [23] was 1.37 µg/mL and the “Neutralization IC50, H3-Vic75” value [24] was 1.12 µg/mL. For the same binder, the “Neutralization IC50, H3-LA87” value [25] was 2.04 µg/mL, the “Neutralization IC50, H3-Syd97” value [26] was 6.5 µg/mL and the “Neutralization IC50, H3-Pa99” value [27] was 9 µg/mL. The “Neutralization IC50, H3-Wl05” value [28] was 2.62 µg/mL, the “Neutralization IC50, H3-Perth09” value [29] was 1.3 µg/mL and the “Neutralization IC50, H3-VC11” value [30] was 3.4 µg/mL. The “Neutralization IC50, H7-NLD03” value [31] was 4.74 µg/mL, the “Neutralization IC50, H7-BC04” value [32] was 2.95 µg/mL and the “Neutralization IC50, H7-ANU13” value [33] was 4.26 µg/mL. B1: no binding (tested: 5 ug/ml) [34]; binds [35]; binds [36]. B1: binds [37]; binds [38].
